The Immune Epitope Database (IEDB)

Tests used:
Assay in all cases: IEDB peptide-MHC binding, purified MHC/competitive/radioactivity; filed as Kd, often an IC50 or EC50 that approximates it; ≥ and ≤ were set here for values at or beyond the usual limits of such assays
[1] = molecular target: HLA-A*02:02
[2] = molecular target: HLA-A*02:03
[3] = molecular target: HLA-A*02:06
[4] = molecular target: HLA-A*03:01
[5] = molecular target: HLA-A*11:01
[6] = molecular target: HLA-A*31:01
[7] = molecular target: HLA-A*33:01
[8] = molecular target: HLA-A*68:01
[9] = source organism: Vaccinia virus WR
[10] = source organism: Mammarenavirus juninense
[11] = source organism: Dengue virus 2 Jamaica/1409/1983
[12] = source organism: Dengue virus 1 Brazil/97-11/1997
[13] = source organism: SARS coronavirus Tor2
[14] = source organism: Triticum aestivum
[15] = source organism: Mammarenavirus brazilense

AADLTQIFEV
Kd [1, 9]: 1240 nM
Kd [2, 9]: 404 nM
Kd [3, 9]: 10.9 nM

AIKQYGDIDL
Kd [1, 9]: ≥ 23400 nM
Kd [2, 9]: ≥ 46400 nM
Kd [3, 9]: ≥ 69800 nM

ALEPRKEIDV
Kd [1, 9]: 8370 nM
Kd [2, 9]: 11200 nM
Kd [3, 9]: ≥ 63300 nM

ALINLVQYRI
Kd [1, 9]: 8.32 nM
Kd [2, 9]: 81.6 nM
Kd [3, 9]: 417 nM

ALNIALVAV
Kd [1, 10]: 15.3 nM
Kd [2, 10]: 4.46 nM
Kd [3, 10]: 370 nM

ALVSDCASTI
Kd [1, 9]: 94.2 nM
Kd [2, 9]: 52.1 nM
Kd [3, 9]: 240 nM

AMHTALTGA
Kd [2, 11]: 15.1 nM

AVLDDGIYRI
Kd [3, 12]: 10.5 nM

CTIVDSMII
Kd [1, 9]: 13900 nM
Kd [2, 9]: 1790 nM
Kd [3, 9]: 4580 nM

DVEKRILNTI
Kd [1, 9]: ≥ 21000 nM
Kd [2, 9]: 12600 nM
Kd [3, 9]: 10800 nM

ELPVKTDIV
Kd [1, 9]: ≥ 23000 nM
Kd [2, 9]: 8060 nM
Kd [3, 9]: 11500 nM

ETLFGSYIT
Kd [1, 9]: 2490 nM
Kd [2, 9]: 2440 nM
Kd [3, 9]: 15300 nM

EVNDTHYTV
Kd [1, 9]: 133 nM
Kd [2, 9]: 115 nM
Kd [3, 9]: 4780 nM

FICNLLLLFV
Kd [1, 13]: 2.47 nM
Kd [2, 13]: 14.6 nM
Kd [3, 13]: 3.96 nM

FIMRNFLRSI
Kd [1, 9]: 27.7 nM
Kd [2, 9]: 0.118 nM
Kd [3, 9]: 0.447 nM

FLAFVVFLL
Kd [1, 13]: 0.411 nM
Kd [2, 13]: 87.9 nM
Kd [3, 13]: 2.57 nM

FLLVTLAIL
Kd [1, 13]: 0.645 nM
Kd [2, 13]: 0.97 nM
Kd [3, 13]: 0.476 nM

FMSHVKSVT
Kd [1, 9]: 508 nM
Kd [2, 9]: 181 nM
Kd [3, 9]: 4320 nM

FVFDRPLPV
Kd ([3]; source organism: Homo sapiens): 2.38 nM

GAFMYTKHSM
Kd [1, 9]: 544 nM
Kd [2, 9]: 458 nM
Kd [3, 9]: 3140 nM

GALYLGHSA
Kd [1, 9]: 7500 nM
Kd [2, 9]: 1900 nM
Kd [3, 9]: 792 nM

GLFGKGGIV
Kd [2, 11]: 11 nM

GLTADARLL
Kd ([2]; source organism: Homo sapiens): 362 nM

GMMQNDYGGM
Kd [1, 9]: 103 nM
Kd [2, 9]: 589 nM
Kd [3, 9]: 12000 nM

GMSIVCIVAA
Kd [1, 9]: 161 nM
Kd [2, 9]: 231 nM
Kd [3, 9]: 1220 nM

GVVTTSGTYV
Kd [3, 12]: 665 nM

IISYIILFIL
Kd [1, 9]: 66.2 nM
Kd [2, 9]: 489 nM
Kd [3, 9]: 3930 nM

ILDNAAKYV
Kd [1, 9]: 126 nM
Kd [2, 9]: 261 nM
Kd [3, 9]: 1810 nM

KADAVVADL
Kd [1, 9]: 5140 nM
Kd [2, 9]: 12400 nM
Kd [3, 9]: 2210 nM

LLAIGCYSQV
Kd [2, 11]: 8.28 nM

NVTSMEELAR
Kd [4, 9]: 5040 nM
Kd [5, 9]: 227 nM
Kd [6, 9]: 705 nM
Kd [7, 9]: 254 nM
Kd [8, 9]: 2.82 nM

PAAEFRRVAH
Kd [4, 10]: ≥ 70000 nM
Kd [5, 10]: ≥ 69700 nM
Kd [6, 10]: 9340 nM
Kd [7, 10]: ≥ 24400 nM
Kd [8, 10]: ≥ 70100 nM

PADCFLVKLK
Kd [4, 9]: 2910 nM
Kd [5, 9]: 1510 nM
Kd [6, 9]: ≥ 31200 nM
Kd [7, 9]: 17100 nM
Kd [8, 9]: ≥ 22400 nM

PIINTHSFY
Kd [4, 9]: ≥ 78000 nM
Kd [5, 9]: ≥ 77900 nM
Kd [6, 9]: ≥ 77900 nM
Kd [7, 9]: ≥ 77700 nM
Kd [8, 9]: ≥ 77700 nM

PLLCTLNKSH
Kd [4, 10]: ≥ 70000 nM
Kd [5, 10]: ≥ 69700 nM
Kd [6, 10]: ≥ 70000 nM
Kd [7, 10]: ≥ 70000 nM
Kd [8, 10]: ≥ 70100 nM

PLNEGVMAV
Kd ([2]; source organism: Dengue virus 3 Martinique/1243/1999): 21.5 nM

QITTDDLVK
Kd [4, 9]: ≥ 38900 nM
Kd [5, 9]: 803 nM
Kd [6, 9]: 207 nM
Kd [7, 9]: 3750 nM
Kd [8, 9]: 436 nM

QLLQELCCQH
Kd [4, 14]: ≥ 27100 nM
Kd [5, 14]: ≥ 69800 nM
Kd [6, 14]: ≥ 70000 nM
Kd [7, 14]: ≥ 70000 nM
Kd [8, 14]: 17400 nM

QMDSMEALEY
Kd [4, 9]: 1710 nM
Kd [5, 9]: 755 nM
Kd [6, 9]: ≥ 70000 nM
Kd [7, 9]: ≥ 70000 nM
Kd [8, 9]: 11800 nM

QTVDFTDCR
Kd [4, 9]: ≥ 35500 nM
Kd [5, 9]: 348 nM
Kd [6, 9]: 722 nM
Kd [7, 9]: 5810 nM
Kd [8, 9]: 1.57 nM

RLSILSKDK
Kd [4, 9]: 613 nM
Kd [5, 9]: 1210 nM
Kd [6, 9]: 10700 nM
Kd [7, 9]: 12900 nM
Kd [8, 9]: 1080 nM

RTMPNESRVK
Kd [4, 9]: 25.1 nM
Kd [5, 9]: 4.57 nM
Kd [6, 9]: 123 nM
Kd [7, 9]: ≥ 70000 nM
Kd [8, 9]: 1120 nM

SLGLILLKIV
Kd ([2]; source organism: Dengue virus 4 Dominica/814669/1981): 14.7 nM

SMGFKVTTRR
Kd [4, 9]: 97.2 nM
Kd [5, 9]: 1050 nM
Kd [6, 9]: 22.1 nM
Kd [7, 9]: 747 nM
Kd [8, 9]: 213 nM

SMLTNAISSR
Kd [4, 9]: 505 nM
Kd [5, 9]: 258 nM
Kd [6, 9]: 117 nM
Kd [7, 9]: 2330 nM
Kd [8, 9]: 218 nM

SMTIREFPR
Kd [4, 9]: 14800 nM
Kd [5, 9]: 599 nM
Kd [6, 9]: 0.164 nM
Kd [7, 9]: 1.94 nM
Kd [8, 9]: 200 nM

SNSKEIPSFR
Kd [4, 15]: ≥ 33300 nM
Kd [5, 15]: 1880 nM
Kd [6, 15]: 650 nM
Kd [7, 15]: 540 nM
Kd [8, 15]: 315 nM

SQVNPLTLTA
Kd [3, 12]: 167 nM
